In PMC10651481, “m1A in CAG repeat RNA binds to TDP-43 and induces neurodegeneration” one finds Kd data, which are given here for five molecules.

One data set has as its target TDP-43-RRM (UniProt Q13148 104-262). Kind of data set: EMSA; EMSA: 10 mM HEPES pH 8.0, 50 mM KCl, 1 mM EDTA, 5% glycerol, 1 mM DTT, 40 U/ml RNase inhibitor, 4 C, 1 h; 20 fmol probe in 20 ul; 8% native PAGE. To be noted: protein: recombinant. (In general: A gel shift assay detects complexes by their altered migration in electrophoresis.)
Data set [1] concerns the target T1, TDP-43 full-length (UniProt Q13148 1-414). Described as above. The conditions noted are these: protein: recombinant, tags: MBP-6xHis (C-terminal as named TDP-43-MBP-6xHis).
For data set [2], the target named is T1, TDP-43 full-length. Kind of data set: EMSA; separate experiment run beside 5FL; differs from 70 nM in 3d,e; EMSA: 10 mM HEPES pH 8.0, 50 mM KCl, 1 mM EDTA, 5% glycerol, 1 mM DTT, 40 U/ml RNase inhibitor, 4 C, 1 h; 20 fmol probe in 20 ul; 8% native PAGE. To be noted: protein: recombinant; tags: MBP-6xHis (C-terminal as named TDP-43-MBP-6xHis); label: 5'-32P.

The term Kd denotes the concentration at which binding is half-saturated.

T1 sequence (Q13148 whole entry): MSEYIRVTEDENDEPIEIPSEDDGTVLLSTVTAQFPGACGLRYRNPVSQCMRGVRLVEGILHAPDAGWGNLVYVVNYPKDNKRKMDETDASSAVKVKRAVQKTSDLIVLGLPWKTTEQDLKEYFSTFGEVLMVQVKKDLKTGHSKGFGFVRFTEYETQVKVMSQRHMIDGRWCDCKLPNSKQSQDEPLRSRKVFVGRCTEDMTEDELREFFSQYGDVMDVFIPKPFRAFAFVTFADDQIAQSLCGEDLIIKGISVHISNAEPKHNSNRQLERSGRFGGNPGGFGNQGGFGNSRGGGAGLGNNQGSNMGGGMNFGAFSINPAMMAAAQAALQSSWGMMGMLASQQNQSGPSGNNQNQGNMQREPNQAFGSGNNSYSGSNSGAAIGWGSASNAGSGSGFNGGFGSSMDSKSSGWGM
Sequence of TDP-43-RRM (Q13148 104-262): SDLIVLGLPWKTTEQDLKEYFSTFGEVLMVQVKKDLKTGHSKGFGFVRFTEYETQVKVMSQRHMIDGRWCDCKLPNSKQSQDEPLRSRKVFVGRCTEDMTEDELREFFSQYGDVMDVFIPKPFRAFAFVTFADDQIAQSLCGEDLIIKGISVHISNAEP

B1: (CAG)7-1m1A (ssRNA)
RNA: CAGCAGCAGCAGCAGCAGCAG
modifications: m1A at position 11
As to B1, the equilibrium dissociation constant (Kd) with TDP-43-RRM (label: 5'-32P) was found to be 180 nM; in the data set with TDP-43 full-length [1] (label: 5'-32P) it was 70 nM; with TDP-43 full-length [2] it was 13.1 nM.

B2: (CAG)7-0m1A (ssRNA)
RNA: CAGCAGCAGCAGCAGCAGCAG
For the molecule B2, the results for the equilibrium dissociation constant (Kd) with TDP-43-RRM (label: 5'-32P) and in the data set with TDP-43 full-length [1] (label: 5'-32P) were 380 nM and 146 nM, respectively.

B3: Control RNA probe (rA) (ssRNA)
RNA: CCGUUCCGCCCAGGCCGCGCCCAGCUGGAAUGCA
Consider B3, for which the dissociation constant (Kd) with TDP-43-RRM (label: 5'-biotin, 3'-32P pCp) is 73 nM; in the data set with TDP-43 full-length [1] (label: 5'-biotin, 3'-32P pCp) it was 38 nM.

B4: m1A RNA probe (ssRNA)
RNA: B3 RNA
modifications: m1A at position 12
As for B4, the Kd was determined as 31 nM in the data set with TDP-43-RRM (label: 5'-biotin, 3'-32P pCp) and 18 nM with TDP-43 full-length [1] (label: 5'-biotin, 3'-32P pCp).

B5: m6A RNA probe (ssRNA)
RNA: B3 RNA
modifications: m6A at position 12
Consider B5, for which the Kd with TDP-43-RRM (label: 5'-biotin, 3'-32P pCp) was found to be 81 nM; with TDP-43 full-length [1] (label: 5'-biotin, 3'-32P pCp), 46 nM.
